“And” between values parts separate entries of the source, which are not always exact repeats. Identical values can stand only once.
Tests used:
[1] = system: mouse 3T3-L1 preadipocytes; assay: 3T3-L1 preadipocyte differentiation (oil red O, qRT-PCR); type: cell-based; settings: for adipogenesis and lipogenesis in 3T3-L1 cells (oil red O): added to culture medium, 6 days of differentiation
Experimental: FIG. 23 illustrates that arginine depletion by adding N-ABD094-rhArg (SEQ ID NO: 50) (rhArg), bovine arginase or native arginine deiminase (ADI) to the culture medium, or using arginine-free medium inhibited the differentiation of mouse 3T3-L1 preadipocytes into adipocytes. […] (*The culture medium contains 0.4 mM L-arginine and can be converted into 0.4 mM L-ornithine and 0.4 mM urea by arginase, or 0.4 mM L-citrulline by ADI.). Cells grown in culture medium without addition of arginine depleting agents or metabolic products of arginase/ADI served as the control. Lipids in cells were stained with oil red O at 6 days after exposure to specific differentiation-inducing factors added to the medium.
FIG. 24 illustrates that N-ABD094-rhArg (SEQ ID NO: 50) could suppress adipogenic and lipogenic genes in 3T3-L1 preadipocytes. Mouse 3T3-L1 preadipocytes were cultured for 6 days in medium supplemented with specific factors to induce differentiation into adipocytes (differentiated). Cells grown in medium without these factors remained undifferentiated. The medium was added with 2U/mL N-ABD094-rhArg (SEQ ID NO: 50) (rhArg). Cells grown in medium without the addition of N-ABD094-rhArg served as the control. The mRNA expression levels of several crucial (A) transcriptional regulators of adipogenesis, and (B) enzymes in lipogenic pathways were determined by real-time qRT-PCR, and expressed relative to the undifferentiated (control) group, which is set as 1. *P<0.05, one-way ANOVA followed by Fisher's LSD. Data are expressed as mean±SEM, n=3 for each group.
FIG. 25 illustrates the response of 3T3-L1 preadipocytes to various concentrations of arginine Mouse 3T3-L1 preadipocytes were cultured in arginine-free medium with or without addition of varying concentrations of L-arginine for 6 days. Cells cultured in normal arginine-containing medium supplemented with differentiation inducing factors served as the positive (+ve) control of differentiation, while cells cultured in normal arginine-containing medium without supplementation of differentiation inducing factors served as the negative (−Ve) control of differentiation. One group of cells was cultured in normal arginine-containing medium supplemented with differentiation inducing factors and treated with 5U/mL N-ABD094-rhArg (SEQ ID NO: 50) (rhArg) to inhibit differentiation. (A) Cells were stained for lipids with oil red O, and staining intensity was quantified by measuring optical density, which is expressed as the percentage against the +ve control group. (B) The mRNA levels of several crucial lipogenesis related genes are expressed relative to cells cultured in arginine-free medium, which is set as 1. Data are expressed as mean±SEM, n=3 for each group.
To test the effect of N-ABD094-rhArg (SEQ ID NO: 50) on fat cells, mouse 3T3-L1 preadipocytes were used, which are commonly employed as cell-based model for studying adipogenesis [Green and Meuth, 1974, Cell 3:127-133].

[2] = Arginase specific activity, DAMO colorimetric assay; type: biochemical; settings: 37° C., pH 7.4, purified preparation
Source text: The arginase activity of the fusion proteins described herein can be substantially the same, lower, or higher than the activity of the arginase polypeptide from which it is derived. One unit of arginase activity is defined as the amount of fusion protein [e.g., BHA (SEQ ID NO; 75), BAH (SEQ ID NO: 76), N-ABD-rhArg (SEQ ID NO: 49), or N-ABD094-rhArg (SEQ ID NO: 50)] or arginase [e.g., BCA (SEQ ID NO: 70)] that catalyzes the production of 1 μmol of urea per min under standard assay conditions. The specific activity of the enzyme is expressed as activity units per mg of protein. Under standard diacetylmonoxime (DAMO) assay conditions (37° C., pH 7.4), the fusion proteins can have a specific activity that is about 5%, about 10%, about 15%, about 20%, about 25% about 30%, about 35% or about 40% lower or higher than the corresponding arginase polypeptide which it incorporates. In certain embodiments, fusion proteins can have a specific activity that is about 5% to about 40%, about 10% to about 40%, about 10% to about 35%, about 10% to about 30%, about 20% to about 30%, about 20% to about 35%, about 15% to about 30%, about 15% to about 25%, or about 10% to about 20% lower or higher than the corresponding arginase polypeptide which it incorporates.
One unit of enzyme activity is defined as the amount of enzyme (BCA, BHA or BAH) that catalyzes the production of 1 μmol urea per min under standard assay conditions. Specific activity of the enzyme is expressed as activity units per mg of protein.
Briefly, a serial dilution of 0.3 mL BCA solutions together with 0.15 mL water and 720 mM arginine substrate at pH 7.4 was pre-incubated separately at 37° C. for 10 min. The enzymatic reaction was carried out by adding 0.3 mL arginine substrate to the pre-incubated enzyme solutions. […]
The urea formed from the above reaction was quantified using the DAMO direct colorimetric method described by World Health Organization (WHO). […] The absorbance at 540 nm was measured. […]

[3] = DIO mice treated with PEGylated His-rhArg; type: in vivo, C57BL/6J male mice
Experimental: Production of PEGylated His-rhArg (SEQ ID NO: 101) is described in Example 30. C57BL/6J male mice with pre-existing diet-induced obesity (DIO) received i.p. injection of 300U PEGylated His-rhArg [SEQ ID NO: 101], or saline as vehicle control, at 7-day intervals for 5 weeks, while continuously being fed a HFD. […] Regular monitoring of plasma arginine concentrations confirmed that arginine remained at levels below the detection limit of the Biochrom 30 Amino Acid Analyzer (3 μM) throughout the study.

[4] = system: 4T1 breast cancer allograft; assay: 4T1 breast cancer allograft study; type: in vivo, female nude mice; settings: 500U once per week
Experimental: In another 4T1 breast cancer allograft study, female nude mice (5-6 weeks of age) were used. They were kept in groups of five per cage and provided food and water ad libitum. Cells of 4T1 breast cancer ([…]) were injected subcultuaneously into the right flank of the mice. […] There were one control group (n=8) and three experimental groups, including 500U PEGylated His-rhArg (SEQ ID NO: 101) (n=8), 500U N-ABD-rhArg (SEQ ID NO: 49) (n=6) and 250U N-ABD-rhArg (SEQ ID NO: 49) (n=8). Mice in the control group were injected with 1×PBS weekly. For the 500U ABD-rhArg group and the 250U ABD-rhArg group, mice were injected with 500U and 250U ABD-rhArg once a week, respectively; one group was injected with 500U PEG-rhArg once per week. The mice were sacrificed after 24 days of inoculation (i.e. 14 days after starting of experiment) because of necrosis of tumor in PBS control group. After sacrificing, the mice were dissected. Tumors were collected from the mice and measured their weight. Lungs were also collected and washed with 1×PBS. The lungs were fixed in Bouin's solution overnight and washed with 1×PBS after fixation. Lung metastatic nodules were counted.

circulating arginine = settings: i.p., cited from earlier work

Q: With N=C(N)NCCC[C@H](N)C(=O)O [L-arginine] as the molecule, how does the “threshold concentration for activation of Cebpa, Pparg and Scd1” value ([1]; arginine-free medium supplemented with L-arginine, 6 days) read?
A: 10 to 40 µM

Q: For NC(=O)NCCC[C@H](N)C(=O)O [L-citrulline], which “adipogenesis and lipogenesis in 3T3-L1 cells (oil red O)” value (from here on “adipogenesis and lipogenesis”) [1] is on record?
A: could not inhibit

Q: For NCCC[C@H](N)C(=O)O [L-ornithine], which “adipogenesis and lipogenesis” value [1] is on record?
A: could not inhibit

Q: Which “adipogenesis and lipogenesis” value [1] does the source give for NC(N)=O [urea] here?
A: could not inhibit

B1: PEGylated His-rhArg (conjugate)
chain: MHHHHHHMSAKSRTIGIIGAPFSKGQPRGGVEEGPTVLRKAGLLEKLKEQECDVKDYGDLPFADIPNDSPFQIVKNPRSVGKASEQLAGKVAEVKKNGRISLVLGGDHSLAIGSISGHARVHPDLGVIWVDAHTDINTPLTTTSGNLHGQPVSFLLKELKGKIPDVPGFSWVTPCISAKDIVYIGLRDVDPGEHYILKTLGIKYFSMTEVDRLGIGKVMEETLSYLLGRKKRPIHLSFDVDGLDPSFTPATGTPVVGGLTYREGLYITEEIYKTGLLSGLDIMEVNPSLGKTPEEVTRTVNTAVAITLACFGLAREGNHKPIDYLNPPK
modifications: PEGylated; His-rhArg, Synthesized in Lab
Q: Which Specific activity [2] does the source give for B1 here?
A: 245 U/mg

Q: And the Specific activity ([2]; listed as PEGylated His-rhArg batch 3)?
A: 189 U/mg and 213 U/mg

Q: And the bodyweight after treatment ([3]; 300U i.p. at 7-day intervals for 5 weeks, HFD continued)?
A: 30 g

Q: And the “weight of liver, kidney, pancreas and heart vs vehicle-treated DIO mice” value ([3]; 300U weekly)?
A: significantly lower

Q: And the “weight of fat pad at visceral and subcutaneous depots” value ([3]; 300U weekly, end of study)?
A: significantly reduced

Q: And the “plasma arginine concentrations throughout the study” value ([3]; 300U weekly, Biochrom 30 detection limit)?
A: < 3 µM

Q: And the “fasting blood glucose levels vs vehicle-treated DIO mice” value ([3]; two weeks after treatment)?
A: lower

Q: And the “insulin sensitivity (ITT) vs vehicle-treated DIO mice” value ([3]; two weeks after treatment)?
A: significant increase

Q: What about the “growth of 4T1 solid tumor” value [4] of the same molecule?
A: inhibited the growth of the aggressive 4T1 solid tumor significantly

Q: What about the “metastasis nodules from the lungs vs control group” value [4] of the same molecule?
A: very significantly reduced

B2: PEGylated rhArg (conjugate, UniProt P05089 1-322, looked up)
Arginase-1: MSAKSRTIGIIGAPFSKGQPRGGVEEGPTVLRKAGLLEKLKEQECDVKDYGDLPFADIPNDSPFQIVKNPRSVGKASEQLAGKVAEVKKNGRISLVLGGDHSLAIGSISGHARVHPDLGVIWVDAHTDINTPLTTTSGNLHGQPVSFLLKELKGKIPDVPGFSWVTPCISAKDIVYIGLRDVDPGEHYILKTLGIKYFSMTEVDRLGIGKVMEETLSYLLGRKKRPIHLSFDVDGLDPSFTPATGTPVVGGLTYREGLYITEEIYKTGLLSGLDIMEVNPSLGKTPEEVTRTVNTAVAITLACFGLAREGNHKPIDYLNPPK
modifications: PEGylated
Q: For B2, which “time circulating arginine below detection limit (3 μM)” value (circulating arginine; 1,500 U per rat (6 U/g)) is on record?
A: 6 days

B3: native rhArg: native recombinant human arginase (Tsui et al.) (protein, UniProt P05089 1-322, looked up)
Arginase-1: B2 Arginase-1
Q: What does the source list for B3?
A: circulating arginine within 3 hour of injection (circulating arginine; 7,500 U/rat): ~20 µM; time for arginine to return to basal level post-injection (circulating arginine; 7,500 U/rat): ~2 days
